The values below are quoted from earlier work in paper doi:10.1101/2025.04.18.649563.

For the series, the target named is F-actin (Oryctolagus cuniculus) (UniProt P68135). To be noted: cited from earlier work.

In the case of LifeAct (from UniProt Q08641), the Kd (commonly the free concentration of one partner at which half of the binding sites on the other are occupied at equilibrium, for simple one-to-one binding) was 2.2 µM.
